B1: Sticholysin II (StnII), wild type (natural protein, Stichodactyla helianthus, UniProt P07845 1-175, looked up)
chain: ALAGTIIAGASLTFQVLDKVLEELGKVSRKIAVGIDNESGGTWTALNAYFRSGTTDVILPEFVPNTKALLYSGRKDTGPVATGAVAAFAYYMSSGNTLGVMFSVPFDYNWYSNWWDVKIYSGKRRADQGMYEDLYYGNPYRGDNGWHEKNLGYGLRMKGIMTSAGEAKMQIKISR
notes: Sticholysin II (StnII), actinoporin of the sea anemone Stichodactyla helianthus; also called StnII WT; StnII-WT; source: E. coli RB791, purified to homogeneity
B2: StnII-I6C/K67C^ox (oxidized double-Cys mutant of sticholysin II) (natural protein, Stichodactyla helianthus, UniProt P07845 1-175, looked up)
chain: ALAGTCIAGASLTFQVLDKVLEELGKVSRKIAVGIDNESGGTWTALNAYFRSGTTDVILPEFVPNTCALLYSGRKDTGPVATGAVAAFAYYMSSGNTLGVMFSVPFDYNWYSNWWDVKIYSGKRRADQGMYEDLYYGNPYRGDNGWHEKNLGYGLRMKGIMTSAGEAKMQIKISR
modifications: disulfide bridge between C6 and C67 (oxidized form)
notes: Sticholysin II (StnII) of Stichodactyla helianthus with I6C and K67C, made by site-directed mutagenesis; the disulfide prevents the deployment of the N-terminal alpha-helix; Used oxidized; also called StnII CC; source: E. coli RB791, purified to homogeneity
B3: Sticholysin I (StnI), wild type (natural protein, Stichodactyla helianthus, UniProt P81662 1-176, looked up)
chain: SELAGTIIDGASLTFEVLDKVLGELGKVSRKIAVGIDNESGGTWTALNAYFRSGTTDVILPEVVPNTKALLYSGRKSSGPVATGAVAAFAYYMSNGNTLGVMFSVPFDYNWYSNWWDVKIYPGKRRADQGMYEDMYYGNPYRGDNGWYQKNLGYGLRMKGIMTSAGEAKMQIKISR
notes: Sticholysin I (StnI), actinoporin of the sea anemone Stichodactyla helianthus; also called StnI WT; source: E. coli RB791, purified to homogeneity
B4: StnI-I7C/K68C^ox (oxidized double-Cys mutant of sticholysin I) (natural protein, Stichodactyla helianthus, UniProt P81662 1-176, looked up)
chain: SELAGTCIDGASLTFEVLDKVLGELGKVSRKIAVGIDNESGGTWTALNAYFRSGTTDVILPEVVPNTCALLYSGRKSSGPVATGAVAAFAYYMSNGNTLGVMFSVPFDYNWYSNWWDVKIYPGKRRADQGMYEDMYYGNPYRGDNGWYQKNLGYGLRMKGIMTSAGEAKMQIKISR
modifications: disulfide bridge between C7 and C68 (oxidized form)
notes: Sticholysin I (StnI) of Stichodactyla helianthus with I7C and K68C, made by site-directed mutagenesis; the disulfide holds the N-terminal alpha-helix on the beta-sandwich; Used oxidized; also called StnI CC; source: E. coli RB791, purified to homogeneity

The values that follow come from PMC9569322, “Determination of the boundary lipids of sticholysins using tryptophan quenching” (Scientific Reports, 2022).

This series deals with the molecule itself. Nature of the series: cross-linking.
B1: the binding result is listed as “binds”.
As for B2, the binding result was “binds”.
With B3 the entry was “binds”.
For the protein B4, the binding result is given as “binds”.
